One experiment concerns the target LC3B (two-hybrid bait) (UniProt Q9GZQ8). Kind of experiment: mammalian 2-hybrid assay. As to conditions: CHOK.1 cells, LC3B as bait, read off a plot.
Another experiment deals with LC3C (two-hybrid bait) (UniProt Q9BXW4). Description: mammalian 2-hybrid assay. As to conditions: CHOK.1 cells; LC3C as bait; parent: est. 79; read off a plot.
Experiment [1] deals with TAX1BP1 zinc finger domain (human) (UniProt Q86VP1). Kind of experiment: NMR titration; 1H/15N HSQC of 15N-labelled TAX1BP1 zinc fingers (P0 150 μM) with increasing unlabelled ubiquitin, and the reciprocal titration of 15N-labelled ubiquitin; PBS, 10 mM β-mercaptoethanol, 20°C; shift changes of peaks of each zinc finger fitted to a single site-binding model.

Sequence of UniProt Q9BXW4 (Q9BXW4 whole entry, the tested form may be a part): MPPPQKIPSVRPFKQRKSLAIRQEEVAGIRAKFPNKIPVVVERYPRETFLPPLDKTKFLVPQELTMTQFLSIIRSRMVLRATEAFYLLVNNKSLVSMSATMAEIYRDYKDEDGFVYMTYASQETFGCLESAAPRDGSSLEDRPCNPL

With “TAX1BP1 full-length wild-type (two-hybrid prey) (from UniProt Q86VP1) V144S”, the response with LC3B (two-hybrid bait) (parent: est. 85) stood at 20; with LC3B (two-hybrid bait) (parent: est. 98) it was 27; with LC3C (two-hybrid bait) it was 34.

With “mono-ubiquitin (from UniProt P0CG48 1-76) (natural protein)”, in experiment [1], the KD, site ZF1 (N-terminal module) was found to be 70 µM and the KD, site ZF2 (C-terminal module) stood at 7 µM.

The record behind these values is PMC4599966.
